In patent US20100047245A1:
Changes are numbered by the printed parent chain.

B1: 8E1.1 (antibody, human IgG1, kappa, L234A L235A, V domains shown)
VH: EVQLVESGGGLVQPGGSLRLSCAASGFTFSDYGMVWVRQAPGKGLEWVGSISSGSSNIYYADTVKGRFTISRDDSKNSLYLQMNSLKTEDTAVYYCARNPYWGQGTTVTVSS
VL: DIQMTQSPSSLSASVGDRVTITCKASQNVGTNVAWYQQKPEKAPKSLIYSASHRYSGVPSRFSGSGSGTDFTLTISSLQPEDFATYYCQQYNSYPLTFGGGTKVEIKR
B2: 8E1.6 (antibody, V domains shown)
VH: B1 VH with G49A, S75A, S78T, K87R, T88A, T107L
VL: B1 VL with E41G, S46G
B3: 8E1.5 (antibody, IgG1, V domains shown)
VH: B1 VH with G49A, D74N, S75A, S78T, K87R, T88A, T107L
VL: B1 VL with E41G, S46G, S60D
B4: 8E1 (antibody, V domains shown)
VH: EVKLVESGGGLVQPGGSRKLSCAASGFTFSDYGMVWVRQAPGKGLEWVASISSGSSNIYYADTVKGRFTISRDDPNNTLFLQMRSLRSEDTAMYYCARNPYWGQGTTLTVSS
VL: DIVMTQSQKFMSTSVGDRVSVTCKASQNVGTNVAWYQQKPGQSPKGLIYSASHRYSGVPDRFAGSGSGTDFTLTISNVQSEDLAEYFCQQYNSYPLTFGGGTKLELKR

Assays:
[1] = target: recombinant purified human IL-12 p70 (human) (UniProt P29459); test: cell-based or functional assay
recombinant purified human IL-12 p70 (human), sequence (chain, as listed by the source, form in doubt, chain 1 of 2): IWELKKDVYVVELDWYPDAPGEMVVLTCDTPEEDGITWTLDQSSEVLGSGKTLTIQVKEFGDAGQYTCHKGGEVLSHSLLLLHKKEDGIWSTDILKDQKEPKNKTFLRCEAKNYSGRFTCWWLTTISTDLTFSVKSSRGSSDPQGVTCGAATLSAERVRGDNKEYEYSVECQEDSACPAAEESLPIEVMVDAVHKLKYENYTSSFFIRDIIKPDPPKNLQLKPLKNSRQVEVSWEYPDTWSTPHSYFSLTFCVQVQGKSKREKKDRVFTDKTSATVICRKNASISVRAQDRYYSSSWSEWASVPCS
recombinant purified human IL-12 p70 (human), sequence (P29459 23-219, form in doubt, chain 2 of 2): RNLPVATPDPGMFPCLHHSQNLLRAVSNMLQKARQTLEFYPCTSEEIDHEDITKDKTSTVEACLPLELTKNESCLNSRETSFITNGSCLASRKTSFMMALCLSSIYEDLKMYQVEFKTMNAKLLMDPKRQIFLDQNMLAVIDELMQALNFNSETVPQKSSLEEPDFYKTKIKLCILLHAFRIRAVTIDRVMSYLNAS

[2] = target: recombinant purified human IL-12 p70 (human) (UniProt P29459); test: SPR (Biacore) per Example 1.1.B, recombinant human IL-12p70
[3] = target: recombinant purified human IL-12 p70 (human) (UniProt P29459); test: competition ELISA on plate-coated human IL-12; competes 0.8 µg/ml biotinylated 8E1; Expt. 2
[4] = target: recombinant purified human IL-12 p70 (human) (UniProt P29459); test: competition ELISA on plate-coated human IL-12; competes 0.8 µg/ml biotinylated 8E1; Average
[5] = target: recombinant purified human IL-12 p70 (human) (UniProt P29459); test: competition ELISA on plate-coated human IL-12; competes 0.8 µg/ml biotinylated 8E1; Expt. 3
[6] = target: recombinant purified human IL-12 p70 (human) (UniProt P29459); test: competition ELISA on plate-coated human IL-12; competes 0.8 µg/ml biotinylated 8E1; Expt. 1
[7] = target: recombinant purified human IL-12 p70 (human) (UniProt P29459); test: SPR (Biacore) per Example 1.1.B; antigen not restated, taken as human IL-12 p70
[8] = target: recombinant purified human IL-12 p70 (human) (UniProt P29459); test: SPR (Biacore 3000), mAb captured via goat anti-mouse IgG Fc, human IL-12 p70 in solution

Binder	Av. IC50 (nM) Hu IL-12; PHA blast IFN-gamma induction assay [1] [nM]	Kd [2] [pM]	koff [2] [s⁻¹]	kon [2] [M⁻¹ s⁻¹]	IC50 [3] [µg/mL]	IC50 [4] [µg/mL]	IC50 [5] [µg/mL]	IC50 [6] [µg/mL]	Kd [7] [pM]	koff [7] [s⁻¹]	kon [7] [M⁻¹ s⁻¹]	Av. IC50(nM) huIL-12; PHA blast IFN-gamma induction assay [1] [nM]	Kd [8] [pM]	koff [8] [s⁻¹]	kon [8] [M⁻¹ s⁻¹]	Average IC50 (nM) Human IL-12; PHA blast IFN-gamma induction assay [1] [nM]
B1	2.8	1700	0.00087	520000	–	–	–	–	–	–	–	–	–	–	–	–
B2	–	–	–	–	2.43	2.1	1.61	2.25	46	8e-05	1.7e+06	–	–	–	–	–
B3	–	–	–	–	–	–	13.4	–	750	0.00124	1.6e+06	8	–	–	–	–
B4	–	–	–	–	2.78	2.56	2.28	2.63	–	–	–	–	74	5.1e-05	690000	0.19
